According to US20170266254A1 (AILERON THERAPEUTICS, published 2017):
Bridges are numbered along the chain shown (N, C = ends). [ ]: non-standard residue; d: D form. S5 = C=CCCC[C@](C)(N)C(=O)O

B1: SP16 (peptide)
peptide: Ac-LGANDELISF[S5]DEG[S5]QEEKSSN-NH2
modifications: staple 11-15
SMILES: CC[C@H](C)[C@H](NC(=O)[C@H](CC(C)C)NC(=O)[C@H](CCC(=O)O)NC(=O)[C@H](CC(=O)O)NC(=O)[C@H](CC(N)=O)NC(=O)[C@H](C)NC(=O)CNC(=O)[C@H](CC(C)C)NC(C)=O)C(=O)N[C@@H](CO)C(=O)N[C@@H](Cc1ccccc1)C(=O)N[C@@]1(C)CCCC=CCCC[C@@](C)(C(=O)N[C@@H](CCC(N)=O)C(=O)N[C@@H](CCC(=O)O)C(=O)N[C@@H](CCC(=O)O)C(=O)N[C@@H](CCCCN)C(=O)N[C@@H](CO)C(=O)N[C@@H](CO)C(=O)N[C@@H](CC(N)=O)C(N)=O)NC(=O)CNC(=O)[C@H](CCC(=O)O)NC(=O)[C@H](CC(=O)O)NC1=O
B2: SP17 (peptide)
peptide: Ac-LGANDELISFK[S5]EGE[S5]EEKSSN-NH2
modifications: staple 12-16
SMILES: CC[C@H](C)[C@H](NC(=O)[C@H](CC(C)C)NC(=O)[C@H](CCC(=O)O)NC(=O)[C@H](CC(=O)O)NC(=O)[C@H](CC(N)=O)NC(=O)[C@H](C)NC(=O)CNC(=O)[C@H](CC(C)C)NC(C)=O)C(=O)N[C@@H](CO)C(=O)N[C@@H](Cc1ccccc1)C(=O)N[C@@H](CCCCN)C(=O)N[C@@]1(C)CCCC=CCCC[C@@](C)(C(=O)N[C@@H](CCC(=O)O)C(=O)N[C@@H](CCC(=O)O)C(=O)N[C@@H](CCCCN)C(=O)N[C@@H](CO)C(=O)N[C@@H](CO)C(=O)N[C@@H](CC(N)=O)C(N)=O)NC(=O)[C@H](CCC(=O)O)NC(=O)CNC(=O)[C@H](CCC(=O)O)NC1=O
B3: SP49 (peptide)
peptide: Ac-LGANDELISF[S5]DEG[S5]QQQKSSENSSA[S5]RDL[S5]NVKSSLV-NH2
modifications: staple 11-15, 27-31
SMILES: CC[C@H](C)[C@H](NC(=O)[C@H](CC(C)C)NC(=O)[C@H](CCC(=O)O)NC(=O)[C@H](CC(=O)O)NC(=O)[C@H](CC(N)=O)NC(=O)[C@H](C)NC(=O)CNC(=O)[C@H](CC(C)C)NC(C)=O)C(=O)N[C@@H](CO)C(=O)N[C@@H](Cc1ccccc1)C(=O)N[C@@]1(C)CCCC=CCCC[C@@](C)(C(=O)N[C@@H](CCC(N)=O)C(=O)N[C@@H](CCC(N)=O)C(=O)N[C@@H](CCC(N)=O)C(=O)N[C@@H](CCCCN)C(=O)N[C@@H](CO)C(=O)N[C@@H](CO)C(=O)N[C@@H](CCC(=O)O)C(=O)N[C@@H](CC(N)=O)C(=O)N[C@@H](CO)C(=O)N[C@@H](CO)C(=O)N[C@@H](C)C(=O)N[C@@]2(C)CCCC=CCCC[C@@](C)(C(=O)N[C@@H](CC(N)=O)C(=O)N[C@H](C(=O)N[C@@H](CCCCN)C(=O)N[C@@H](CO)C(=O)N[C@@H](CO)C(=O)N[C@@H](CC(C)C)C(=O)N[C@H](C(N)=O)C(C)C)C(C)C)NC(=O)[C@H](CC(C)C)NC(=O)[C@H](CC(=O)O)NC(=O)[C@H](CCCNC(=N)N)NC2=O)NC(=O)CNC(=O)[C@H](CCC(=O)O)NC(=O)[C@H](CC(=O)O)NC1=O
B4: SP57 (peptide)
peptide: LGANDELISFANQGAQEEKSSNNSSAARNLADVKSSLV
modifications: not fully specified; N-terminal acetyl; C-terminal amide; $ = (S)-alpha-(2'-pentenyl)alanine at positions 11 and 15 (first crosslink) and 27 and 31 (second crosslink), each pair joined by an all-carbon crosslinker with one double bond
B5: SP63 (peptide)
peptide: Ac-LGANDELISF[S5]NEG[S5]QAEKSSNNSSA[S5]RNL[S5]DVKSSLV-NH2
modifications: staple 11-15, 27-31
SMILES: CC[C@H](C)[C@H](NC(=O)[C@H](CC(C)C)NC(=O)[C@H](CCC(=O)O)NC(=O)[C@H](CC(=O)O)NC(=O)[C@H](CC(N)=O)NC(=O)[C@H](C)NC(=O)CNC(=O)[C@H](CC(C)C)NC(C)=O)C(=O)N[C@@H](CO)C(=O)N[C@@H](Cc1ccccc1)C(=O)N[C@@]1(C)CCCC=CCCC[C@@](C)(C(=O)N[C@@H](CCC(N)=O)C(=O)N[C@@H](C)C(=O)N[C@@H](CCC(=O)O)C(=O)N[C@@H](CCCCN)C(=O)N[C@@H](CO)C(=O)N[C@@H](CO)C(=O)N[C@@H](CC(N)=O)C(=O)N[C@@H](CC(N)=O)C(=O)N[C@@H](CO)C(=O)N[C@@H](CO)C(=O)N[C@@H](C)C(=O)N[C@@]2(C)CCCC=CCCC[C@@](C)(C(=O)N[C@@H](CC(=O)O)C(=O)N[C@H](C(=O)N[C@@H](CCCCN)C(=O)N[C@@H](CO)C(=O)N[C@@H](CO)C(=O)N[C@@H](CC(C)C)C(=O)N[C@H](C(N)=O)C(C)C)C(C)C)NC(=O)[C@H](CC(C)C)NC(=O)[C@H](CC(N)=O)NC(=O)[C@H](CCCNC(=N)N)NC2=O)NC(=O)CNC(=O)[C@H](CCC(=O)O)NC(=O)[C@H](CC(N)=O)NC1=O
B6: SP64 (peptide)
peptide: LGANDELISFANEGAQEEKSSNNSSAARNLADVKSSLV
modifications: not fully specified; N-terminal acetyl; C-terminal amide; $ = (S)-alpha-(2'-pentenyl)alanine at positions 11 and 15 (first crosslink) and 27 and 31 (second crosslink), each pair joined by an all-carbon crosslinker with one double bond
B7: SP62 (peptide)
peptide: LGANDELISFANEGAQEEKSSNNSSAARDLADVKSSLV
modifications: not fully specified; N-terminal acetyl; C-terminal amide; $ = (S)-alpha-(2'-pentenyl)alanine at positions 11 and 15 (first crosslink) and 27 and 31 (second crosslink), each pair joined by an all-carbon crosslinker with one double bond
B8: SP60 (peptide)
peptide: Ac-LGANDELISF[S5]NQG[S5]QAAKSSNNSSA[S5]RNL[S5]AVKSSLV-NH2
modifications: staple 11-15, 27-31
SMILES: CC[C@H](C)[C@H](NC(=O)[C@H](CC(C)C)NC(=O)[C@H](CCC(=O)O)NC(=O)[C@H](CC(=O)O)NC(=O)[C@H](CC(N)=O)NC(=O)[C@H](C)NC(=O)CNC(=O)[C@H](CC(C)C)NC(C)=O)C(=O)N[C@@H](CO)C(=O)N[C@@H](Cc1ccccc1)C(=O)N[C@@]1(C)CCCC=CCCC[C@@](C)(C(=O)N[C@@H](CCC(N)=O)C(=O)N[C@@H](C)C(=O)N[C@@H](C)C(=O)N[C@@H](CCCCN)C(=O)N[C@@H](CO)C(=O)N[C@@H](CO)C(=O)N[C@@H](CC(N)=O)C(=O)N[C@@H](CC(N)=O)C(=O)N[C@@H](CO)C(=O)N[C@@H](CO)C(=O)N[C@@H](C)C(=O)N[C@@]2(C)CCCC=CCCC[C@@](C)(C(=O)N[C@@H](C)C(=O)N[C@H](C(=O)N[C@@H](CCCCN)C(=O)N[C@@H](CO)C(=O)N[C@@H](CO)C(=O)N[C@@H](CC(C)C)C(=O)N[C@H](C(N)=O)C(C)C)C(C)C)NC(=O)[C@H](CC(C)C)NC(=O)[C@H](CC(N)=O)NC(=O)[C@H](CCCNC(=N)N)NC2=O)NC(=O)CNC(=O)[C@H](CCC(N)=O)NC(=O)[C@H](CC(N)=O)NC1=O
B9: SP58 (peptide)
peptide: Ac-LGANDELLSF[S5]DEG[S5]QQEKSSENSSA[S5]RDL[S5]NVKSSLV-NH2
modifications: staple 11-15, 27-31
SMILES: CC(=O)N[C@@H](CC(C)C)C(=O)NCC(=O)N[C@@H](C)C(=O)N[C@@H](CC(N)=O)C(=O)N[C@@H](CC(=O)O)C(=O)N[C@@H](CCC(=O)O)C(=O)N[C@@H](CC(C)C)C(=O)N[C@@H](CC(C)C)C(=O)N[C@@H](CO)C(=O)N[C@@H](Cc1ccccc1)C(=O)N[C@@]1(C)CCCC=CCCC[C@@](C)(C(=O)N[C@@H](CCC(N)=O)C(=O)N[C@@H](CCC(N)=O)C(=O)N[C@@H](CCC(=O)O)C(=O)N[C@@H](CCCCN)C(=O)N[C@@H](CO)C(=O)N[C@@H](CO)C(=O)N[C@@H](CCC(=O)O)C(=O)N[C@@H](CC(N)=O)C(=O)N[C@@H](CO)C(=O)N[C@@H](CO)C(=O)N[C@@H](C)C(=O)N[C@@]2(C)CCCC=CCCC[C@@](C)(C(=O)N[C@@H](CC(N)=O)C(=O)N[C@H](C(=O)N[C@@H](CCCCN)C(=O)N[C@@H](CO)C(=O)N[C@@H](CO)C(=O)N[C@@H](CC(C)C)C(=O)N[C@H](C(N)=O)C(C)C)C(C)C)NC(=O)[C@H](CC(C)C)NC(=O)[C@H](CC(=O)O)NC(=O)[C@H](CCCNC(=N)N)NC2=O)NC(=O)CNC(=O)[C@H](CCC(=O)O)NC(=O)[C@H](CC(=O)O)NC1=O
B10: SP59 (peptide)
peptide: LGANDELISFADEGAQEEKSSNNSSAARDLAAVKSSLV
modifications: not fully specified; N-terminal acetyl; C-terminal amide; $ = (S)-alpha-(2'-pentenyl)alanine at positions 11 and 15 (first crosslink) and 27 and 31 (second crosslink), each pair joined by an all-carbon crosslinker with one double bond
B11: SP61 (peptide)
peptide: Ac-LGANDELISW[S5]DEG[S5]QQEKSSENSSA[S5]RDL[S5]NVKSSLV-NH2
modifications: staple 11-15, 27-31
SMILES: CC[C@H](C)[C@H](NC(=O)[C@H](CC(C)C)NC(=O)[C@H](CCC(=O)O)NC(=O)[C@H](CC(=O)O)NC(=O)[C@H](CC(N)=O)NC(=O)[C@H](C)NC(=O)CNC(=O)[C@H](CC(C)C)NC(C)=O)C(=O)N[C@@H](CO)C(=O)N[C@@H](Cc1c[nH]c2ccccc12)C(=O)N[C@@]1(C)CCCC=CCCC[C@@](C)(C(=O)N[C@@H](CCC(N)=O)C(=O)N[C@@H](CCC(N)=O)C(=O)N[C@@H](CCC(=O)O)C(=O)N[C@@H](CCCCN)C(=O)N[C@@H](CO)C(=O)N[C@@H](CO)C(=O)N[C@@H](CCC(=O)O)C(=O)N[C@@H](CC(N)=O)C(=O)N[C@@H](CO)C(=O)N[C@@H](CO)C(=O)N[C@@H](C)C(=O)N[C@@]2(C)CCCC=CCCC[C@@](C)(C(=O)N[C@@H](CC(N)=O)C(=O)N[C@H](C(=O)N[C@@H](CCCCN)C(=O)N[C@@H](CO)C(=O)N[C@@H](CO)C(=O)N[C@@H](CC(C)C)C(=O)N[C@H](C(N)=O)C(C)C)C(C)C)NC(=O)[C@H](CC(C)C)NC(=O)[C@H](CC(=O)O)NC(=O)[C@H](CCCNC(=N)N)NC2=O)NC(=O)CNC(=O)[C@H](CCC(=O)O)NC(=O)[C@H](CC(=O)O)NC1=O

The binders below were run against T1, C-terminally 6x Histidine-tagged Beta-Catenin (aa 134-668, 59 KD) (UniProt P35222 134-668) (assay: competitive fluorescence polarization, FAM-labelled linear probe as competitor, His-tagged beta-catenin 134-668).
T1 construct: range 134-668; Armadillo repeat region
T1 sequence: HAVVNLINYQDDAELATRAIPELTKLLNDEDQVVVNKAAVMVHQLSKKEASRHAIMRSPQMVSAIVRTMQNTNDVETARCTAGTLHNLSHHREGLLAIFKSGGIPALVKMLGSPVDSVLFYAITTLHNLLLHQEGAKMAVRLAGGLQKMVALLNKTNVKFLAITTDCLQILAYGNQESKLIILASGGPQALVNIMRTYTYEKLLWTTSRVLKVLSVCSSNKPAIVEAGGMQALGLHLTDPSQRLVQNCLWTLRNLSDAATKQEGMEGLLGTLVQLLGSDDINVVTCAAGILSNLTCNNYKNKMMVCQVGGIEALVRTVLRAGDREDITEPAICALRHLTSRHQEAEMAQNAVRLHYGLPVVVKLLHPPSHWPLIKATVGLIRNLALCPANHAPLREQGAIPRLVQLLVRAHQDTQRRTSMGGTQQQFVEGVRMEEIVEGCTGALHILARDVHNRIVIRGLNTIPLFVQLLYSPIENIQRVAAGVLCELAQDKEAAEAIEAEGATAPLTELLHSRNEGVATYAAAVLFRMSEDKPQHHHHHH
Method in brief: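 FP competition in 25 mM Tris-HCl pH 7.5, 200 mM NaCl, 5 mM CHAPS, 2 mM DTT at room temperature. Competitor peptides at 40–0.7 μM 2× working range, constant DMSO. Probe (benchmark peptide with N-terminal FAM via β-Ala spacer) from 25 nM 10× stock. Read after 3 h in the dark, ex 485/em 528 nm.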

First: B1
Second: B2
The IC50 of the first is higher: ≥ 100000 nM for the first, 52900 nM for the second.

Going from Ac-LGANDELISFKDEGEQEEKSS-NH2 (Linear, not crosslinked) [SP15] to B3, the IC50 falls from 6080 nM to 1650 nM (3.7-fold).

First: B4
Second: B5
The IC50 of the first is 2.9-fold lower: 407 nM for the first, 1190 nM for the second. The first is the more potent here.

Going from B6 to B7, the IC50 falls from 541 nM to 70 nM (7.7-fold). The second is the more potent here.

Going from B8 to B9, the IC50 falls from ≥ 100000 nM to 324 nM. The second is the more potent here.

Compared with B10, B11 is 3.3-fold higher in IC50: 300 nM for the first, 1000 nM for the second.
